pIC50: −log10 of the molar value.
Assays:
G6PD-deficient huRBCs = assay: Hemotoxicity in humanized G6PD deficiency mouse model; format: in vivo, human RBCs engrafted in NOD/SCID mice
Description: Following procedures as previously published ([46]), hemotoxicity studies using huRBC engraftments were conducted in mice.
Female (8 to 9 weeks) NOD.CB17-Prkdcscid/J [nonobese diabetic severe combined immunodeficient (NOD/SCID)] mice were purchased from The Jackson Laboratory (Bar Harbor, ME). The animals were housed in a cage maintained in a specific pathogen–free animal facility and were acclimated for 1 week in the facility before initiation of experimental procedures. Sterile food and water were provided ad libitum throughout the study as previously described ([64]). All animal studies were performed under IACUC-approved protocols and adhere to the principles stated in the Guide for the Care and Use of Laboratory Animals ([100]).
Polymer solutions for SC administration were prepared in DPBS at the final dosing concentrations. All drug concentrations were calculated per the free base molecular weights of TQ. The TQ parent compound was administered intragastrically via an intragastric feeder tube. Polymers and vehicle were administered SC in the right flank. TQ, pSVCTQ, and vehicle were given as a single dose on day 0. In this model, the TQ dose studied was 10 mg/kg; pSVCTQ was tested at doses of 2.5, 5.0, or 10 mg/kg TQ equivalent.
The percentage of huRBCs at the end of this period was analyzed by flow cytometry to evaluate glycophorin A (huRBCs) and Ter119 (mouse RBCs) circulating in peripheral blood. […] The G6PD-deficient huRBC NOD/SCID mice were dosed with pSVCTQ or parent drug prepared as described above, with three to four mice per group. On days 4 and 7 following dosing, huRBC levels were assessed again by flow cytometry (glycophorin^+Ter119^−), along with the percentage of murine reticulocytes (CD71^+Ter119) as an additional marker of hemolytic toxicity. Mice were euthanized on day 7 following initiation of treatment.
Microsoft Excel and GraphPad Prism were used throughout the PK analysis to process the data, calculate pharmacokinetic parameters, and yield statistical information. A linear regression model was produced using the least squares fitting method with 1/x^2 scaling for the assay calibrators. […] For the G6PD deficiency model, data analysis was performed using GraphPad Prism (GraphPad Software). […] An F test comparing the two dose-response curves was also run. For all other work, a combination of Microsoft Excel and GraphPad Prism was used.

primary NHP hepatocytes = assay: Hepatocyte toxicity in the P. cynomolgi anti-hypnozoite assay; format: cell-based, cynomolgus monkey; settings: treatment days 4 to 7 after infection, readout day 8
Description: (§1) Cryopreserved primary cynomolgus monkey hepatocytes (lot STX) and hepatocyte culture medium (HCM) (InVitroGro CP medium) were obtained from BioIVT Inc. (Baltimore, MD, USA) and thawed following the manufacturer’s recommendations. Hepatocytes were seeded in 384-well collagen-coated plates and used for experiments within 2 days after seeding as previously described ([52]). Infectious sporozoites were obtained from Anopheles dirus mosquitoes infected with P. cynomolgi B strain and were used to infect the plated primary NHP hepatocytes 2 days after seeding ([52], [102]). HCM was changed the day after infection and every other day thereafter until drug treatment. […]
(§2) Imaging and image analysis of assay plates were completed using an Operetta CLS high-content imaging system and Harmony 4.9 software (PerkinElmer, Waltham, MA, USA). […] Using similar methodology described previously, parasites were counted with the TRITC channel and were identified by area, mean intensity, maximum intensity, and cell roundness parasites ([50], [99]–[102]). […] Percent inhibition (PI) and toxicity values were calculated relative to in-plate negative controls for parasites and hepatocytes, respectively, using GraphPad Prism software (GraphPad Software Inc., USA, Windows version 9.5.1) using the average of experimental and biological replicates. […]

P. cynomolgi hypnozoites = assay: P. cynomolgi anti-hypnozoite assay in primary NHP hepatocytes (radical cure mode); format: cell-based; settings: treatment days 4 to 7 after infection, readout day 8
Description: as §1, §2

p(GalNAc-MA-co-SVCTQ-MA) [pSVCTQ] was tested. Which “Dose resulting in 50% hemolysis (TD50)” value (G6PD-deficient huRBCs; curve fit of Fig. 4B, single dose, pSVCTQ SC, TQ oral, day 7) did it give?
The value was 11.2 mg/kg.

What about the “Reduction of hemotoxicity compared to oral TQ” value (G6PD-deficient huRBCs; from median effective doses) of the same substance?
Its value is “greater than twofold”.

And the “Median effective dose (dose that results in 50% huRBC loss by day 7 relative to vehicle control)” value (G6PD-deficient huRBCs; single dose day 0, pSVCTQ SC, TQ oral, A− G6PD-deficient donor)?
The value was 11.4 mg/kg.

And the pIC50 (primary NHP hepatocytes)?
Its pIC50 is < 3.79.

And the pIC50 (P. cynomolgi hypnozoites)?
The pIC50 was 4.59.

— article PMC11029812, “Liver-targeted polymeric prodrugs delivered subcutaneously improve tafenoquine therapeutic window for malaria radical cure” (Science Advances, 2024)
